Measured values as given in US12269859B2, “Synthetic immune receptors and methods of use thereof” (Angeles Therapeutics, Inc., priority 2016, dated 2025).

Tested on: target antigen-expressing cell line
Assay: Jurkat NFAT-GFP assay, coculture with target cell lines expressing the respective target antigen (summary Table 10A)
Format: cell-based, human
Set-up: key: The signs +/−, +, 2+ etc. after the name of the cell lines indicate the relative degree of positivity on the Jurkat-NFAT-GFP assay as measured by the % GFP positive cells; +: relative degree of positivity on the Jurkat-NFAT-GFP assay as measured by the % GFP positive cells; 2+: relative degree of positivity on the Jurkat-NFAT-GFP assay as measured by the % GFP positive cells
Settings: relative % GFP positive cells; for NFAT-GFP ASSAY Positive Cell lines: RAJI: SIR-expressing Jurkat-NFAT-GFP cells cocultured with RAJI
Procedure, shortened: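 Read-out: % GFP+ cells by FACS. SIR-transduced, puromycin-selected Jurkat NFAT-GFP (IL-2 promoter reporter) cocultured ~4–18 h with target line, E:T ~1:2; parental cells as control; graded +/−, +, 2+ relative to parental.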

Row | Molecule | NFAT-GFP ASSAY Positive Cell lines: RAJI | NFAT-GFP ASSAY Positive Cell lines: NALM6 (SIR-expressing Jurkat-NFAT-GFP cells cocultured with NALM6)
1 | 012417-K04 (protein) MALPVTALLLPLALLLHAARPLEGKPIPNPLLGLDSTGSGEDLKNVFPPEVAVFEPSKAEIAHTQKATLVCLATGFYPDHVELSWWVNGKEVHSGVCTDPQPLKEQPALNDSRYCLSSRLRVSATFWQNPRNHFRCQVQFYGLSENDEWTQDRAKPVTQIVSAEAWGRADCGITSASYHQGVLSATILYEILLGKATLYAVLVSALVLMAMVKRKDSRGRAKRSGSGATNFSLLKQAGDVEENPGPTSMALPVTALLLPLALLLHAARPQIVLSQSPAILSASPGEKVTMTCRASSSVSYMHWYQQKPGSSPKPWIYATSNLASGVPARFSGSGSGTSYSFTISRVEAEDAATYYCQQWTFNPPTFGGGTRLEIKRTVAAGGGGSGGGGSGGGGSQAYLQQSGAELVRPGASVKMSCKASGYTFTSYNMHWVKQTPRQGLEWIGGIYPGNGDTSYNQKFKGKATLTVGKSSSTAYMQLSSLTSEDSAVYFCARYDYNYAMDYWGQGTSVTVSSASTREQKLISEEDGSGIQNPDPAVYQLRDSKSSDKSVCLFTDFDSQTNVSQSKDSDVYITDKCVLDMRSMDFKSNSAVAWSNKSDFACANAFNNSIIPEDTFFPSSDVPCDVKLVEKSFETDTNLNFQNLSVIGFRILLLKVAGFNLLMTLRLWSSRAKRSGSGVKQTLNFDLLKLAGDVESNPGPSRGHMTEYKPTVRLATRDDVPRAVRTLAAAFADYPATRHTVDPDRHIERVTELQELFLTRVGLDIGKVWVADDGAAVAVWTTPESVEAGAVFAEIGPRMAELSGSRLAAQQQMEGLLAPHRPKEPAWFLATVGVSPDHQGKGLGSAVVLPGVEAAERAGVPAFLETSAPRNLPFYERLGFTVTADVEVPEGPRTWCMTRKPGA | RAJI (+) | –
2 | 012517-Q12 (protein) MALPVTALLLPLALLLHAARPLEGKPIPNPLLGLDSTGSGEDLKNVFPPEVAVFEPSKAEIAHTQKATLVCLATGFYPDHVELSWWVNGKEVHSGVCTDPQPLKEQPALNDSRYCLSSRLRVSATFWQNPRNHFRCQVQFYGLSENDEWTQDRAKPVTQIVSAEAWGRADCGITSASYHQGVLSATILYEILLGKATLYAVLVSALVLMAMVKRKDSRGRAKRSGSGATNFSLLKQAGDVEENPGPTSMALPVTALLLPLALLLHAARPEIVLTQSPGTLSLSPGERATLSCRASSSVPYIHWYQQKPGQAPRLLIYATSALASGIPDRFSGSGSGTDFTLTISRLEPEDFAVYYCQQWLSNPPTFGQGTKLELKRGGGGSGGGGSGGGGSEVQLVQSGAEVKKPGESLKLSCKGSGRTFTSYNMHWVRQMPGKGLEWMGAIYPLTGDTSYNQKSKLQVTISADKSISTAYLQWSSLKASDTAMYYCARSTYVGGDWQFDVWGKGTTVTVSSTREQKLISEEDGSGIQNPDPAVYQLRDSKSSDKSVCLFTDFDSQTNVSQSKDSDVYITDKCVLDMRSMDFKSNSAVAWSNKSDFACANAFNNSIIPEDTFFPSSDVPCDVKLVEKSFETDTNLNFQNLSVIGFRILLLKVAGFNLLMTLRLWSSRAKRSGSGVKQTLNFDLLKLAGDVESNPGPSRGHMTEYKPTVRLATRDDVPRAVRTLAAAFADYPATRHTVDPDRHIERVTELQELFLTRVGLDIGKVWVADDGAAVAVWTTPESVEAGAVFAEIGPRMAELSGSRLAAQQQMEGLLAPHRPKEPAWFLATVGVSPDHQGKGLGSAVVLPGVEAAERAGVPAFLETSAPRNLPFYERLGFTVTADVEVPEGPRTWCMTRKPGA | RAJI (+) | –
3 | 022817-T04 (protein) MALPVTALLLPLALLLHAARPEIVLTQSPATLSLSPGERATLSCRASQSVSSYLAWYQQKPGQAPRLLIYDASNRATGIPARFSGSGSGTDFTLTISSLEPEDFAVYYCQQRSNWPITFGQGTRLEIKLEGKPIPNPLLGLDSTGSGEDLKNVFPPEVAVFEPSKAEIAHTQKATLVCLATGFYPDHVELSWWVNGKEVHSGVCTDPQPLKEQPALNDSRYCLSSRLRVSATFWQNPRNHFRCQVQFYGLSENDEWTQDRAKPVTQIVSAEAWGRADCGITSASYHQGVLSATILYEILLGKATLYAVLVSALVLMAMVKRKDSRGRAKRSGSGATNFSLLKQAGDVEENPGPTSMDWIWRILFLVGAATGAHSFEEVQLVESGGGLVQPDRSLRLSCAASGFTFHDYAMHWVRQAPGKGLEWVSTISWNSGTIGYADSVKGRFTISRDNAKNSLYLQMNSLRAEDTALYYCAKDIQYGNYYYGMDVWGQGTTVTVSSTREQKLISEEDGSGIQNPDPAVYQLRDSKSSDKSVCLFTDFDSQTNVSQSKDSDVYITDKCVLDMRSMDFKSNSAVAWSNKSDFACANAFNNSIIPEDTFFPSSDVPCDVKLVEKSFETDTNLNFQNLSVIGFRILLLKVAGFNLLMTLRLWSSRAKRSGSGVKQTLNFDLLKLAGDVESNPGPSRGHMTEYKPTVRLATRDDVPRAVRTLAAAFADYPATRHTVDPDRHIERVTELQELFLTRVGLDIGKVWVADDGAAVAVWTTPESVEAGAVFAEIGPRMAELSGSRLAAQQQMEGLLAPHRPKEPAWFLATVGVSPDHQGKGLGSAVVLPGVEAAERAGVPAFLETSAPRNLPFYERLGFTVTADVEVPEGPRTWCMTRKPGA | – | (2+)
4 | 030817-F07 (protein) MALPVTALLLPLALLLHAARPEIVLTQSPGTLSLSPGERATLSCRASSSVPYIHWYQQKPGQAPRLLIYATSALASGIPDRFSGSGSGTDFTLTISRLEPEDFAVYYCQQWLSNPPTFGQGTKLELKRLEIQNPDPAVYQLRDSKSSDKSVCLFTDFDSQTNVSQSKDSDVYITDKCVLDMRSMDFKSNSAVAWSNKSDFACANAFNNSIIPEDTFFPSSDVPCDVKLVEKSFETDTNLNFQNLSVIGFRILLLKVAGFNLLMTLRLWSSRAKRSGSGVKQTLNFDLLKLAGDVESNPGPTSMDWIWRILFLVGAATGAHSFEEVQLVQSGAEVKKPGESLKLSCKGSGRTFTSYNMHWVRQMPGKGLEWMGAIYPLTGDTSYNQKSKLQVTISADKSISTAYLQWSSLKASDTAMYYCARSTYVGGDWQFDVWGKGTTVTVSSTREDLKNVFPPEVAVFEPSKAEIAHTQKATLVCLATGFYPDHVELSWWVNGKEVHSGVCTDPQPLKEQPALNDSRYCLSSRLRVSATFWQNPRNHFRCQVQFYGLSENDEWTQDRAKPVTQIVSAEAWGRADCGITSASYHQGVLSATILYEILLGKATLYAVLVSALVLMAMVKRKDSRGRAKRSGSGATNFSLLKQAGDVEENPGPSRGHMTEYKPTVRLATRDDVPRAVRTLAAAFADYPATRHTVDPDRHIERVTELQELFLTRVGLDIGKVWVADDGAAVAVWTTPESVEAGAVFAEIGPRMAELSGSRLAAQQQMEGLLAPHRPKEPAWFLATVGVSPDHQGKGLGSAVVLPGVEAAERAGVPAFLETSAPRNLPFYERLGFTVTADVEVPEGPRTWCMTRKPGA | RAJI (+/−) | –
5 | 030817-W07 (protein) MALPVTALLLPLALLLHAARPSTVMTQSPDSLAVSLGERATINCKSSQSNSNDVAWYQQKPGQSPKVLIYFASNRYSGVPDRFSGSGYGTDFTLTISSLQAEDVAVYFCQQDYSSPLTFGAGTKLELKRADALEDLKNVFPPEVAVFEPSKAEIAHTQKATLVCLATGFYPDHVELSWWVNGKEVHSGVCTDPQPLKEQPALNDSRYCLSSRLRVSATFWQNPRNHFRCQVQFYGLSENDEWTQDRAKPVTQIVSAEAWGRADCGITSASYHQGVLSATILYEILLGKATLYAVLVSALVLMAMVKRKDSRGRAKRSGSGATNFSLLKQAGDVEENPGPTSMDWIWRILFLVGAATGAHSFEQIQLVQSGSELKKPGASVKVSCKASGYTFTNFGVNWVRQAPGKGLEWMGWINTYTGEPSYAQGFTGRFVFSLDASVSTAYLQISSLKAEDTATYFCTRRTNYYGTSYYYAMDYWGQGTTVTVSSAKTTTRIQNPDPAVYQLRDSKSSDKSVCLFTDFDSQTNVSQSKDSDVYITDKCVLDMRSMDFKSNSAVAWSNKSDFACANAFNNSIIPEDTFFPSSDVPCDVKLVEKSFETDTNLNFQNLSVIGFRILLLKVAGFNLLMTLRLWSSRAKRSGSGVKQTLNFDLLKLAGDVESNPGPSRGHMTEYKPTVRLATRDDVPRAVRTLAAAFADYPATRHTVDPDRHIERVTELQELFLTRVGLDIGKVWVADDGAAVAVWTTPESVEAGAVFAEIGPRMAELSGSRLAAQQQMEGLLAPHRPKEPAWFLATVGVSPDHQGKGLGSAVVLPGVEAAERAGVPAFLETSAPRNLPFYERLGFTVTADVEVPEGPRTWCMTRKPGA | RAJI (+/−) | –
6 | 030817-X05 (protein) MALPVTALLLPLALLLHAARPDIQMTQSPSSLSASVGDRVTITCRASSSVSYMHWYQQKPGKAPKPLIYAPSNLASGVPSRFSGSGSGTDFTLTISSLQPEDFATYYCQQWSFNPPTFGQGTKVEIKRLEDLKNVFPPEVAVFEPSKAEIAHTQKATLVCLATGFYPDHVELSWWVNGKEVHSGVCTDPQPLKEQPALNDSRYCLSSRLRVSATFWQNPRNHFRCQVQFYGLSENDEWTQDRAKPVTQIVSAEAWGRADCGITSASYHQGVLSATILYEILLGKATLYAVLVSALVLMAMVKRKDSRGRAKRSGSGATNFSLLKQAGDVEENPGPTSMDWIWRILFLVGAATGAHSFEEVQLVESGGGLVQPGGSLRLSCAASGYTFTSYNMHWVRQAPGKGLEWVGAIYPGNGDTSYNQKFKGRFTISVDKSKNTLYLQMNSLRAEDTAVYYCARVVYYSNSYWYFDVWGQGTLVTVSSTRIQNPDPAVYQLRDSKSSDKSVCLFTDFDSQTNVSQSKDSDVYITDKCVLDMRSMDFKSNSAVAWSNKSDFACANAFNNSIIPEDTFFPSSDVPCDVKLVEKSFETDTNLNFQNLSVIGFRILLLKVAGFNLLMTLRLWSSRAKRSGSGVKQTLNFDLLKLAGDVESNPGPSRGHMTEYKPTVRLATRDDVPRAVRTLAAAFADYPATRHTVDPDRHIERVTELQELFLTRVGLDIGKVWVADDGAAVAVWTTPESVEAGAVFAEIGPRMAELSGSRLAAQQQMEGLLAPHRPKEPAWFLATVGVSPDHQGKGLGSAVVLPGVEAAERAGVPAFLETSAPRNLPFYERLGFTVTADVEVPEGPRTWCMTRKPGA | RAJI (+/−) | –
